Sequences and labels used below:
T1: CcoP, subunit of cbb3-type CIV (Rhodobacter capsulatus, UniProt D5ARP7 1-297)
T1 construct: CcoP subunit of the cbb3-type CIV, Rhodobacter capsulatus; Stood within purified CIV in the cross-linking
T1 sequence (looked up): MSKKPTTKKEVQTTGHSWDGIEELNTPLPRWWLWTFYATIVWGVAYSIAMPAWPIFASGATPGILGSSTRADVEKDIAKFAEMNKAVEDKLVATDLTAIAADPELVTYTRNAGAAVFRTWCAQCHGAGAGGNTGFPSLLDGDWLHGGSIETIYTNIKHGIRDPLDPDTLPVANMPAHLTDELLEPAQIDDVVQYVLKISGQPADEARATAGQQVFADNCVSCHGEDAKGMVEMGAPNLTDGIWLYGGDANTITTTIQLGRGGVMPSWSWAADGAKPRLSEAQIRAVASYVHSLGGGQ

T2: cytochrome c1, subunit of bc1-type CIII2 (Rhodobacter capsulatus, UniProt D5ANZ4 22-279)
T2 construct: cytochrome c1 (petC), Rhodobacter capsulatus; Stood within the CIII2 complex (FeS protein, cyt b, cyt c1; a dimer) in the cross-linking and in the cryo-EM maps of native CIII2; also called cyt c1; PetC; source: native CIII2 particles in the bipartite SC + cy sample
T2 sequence (looked up): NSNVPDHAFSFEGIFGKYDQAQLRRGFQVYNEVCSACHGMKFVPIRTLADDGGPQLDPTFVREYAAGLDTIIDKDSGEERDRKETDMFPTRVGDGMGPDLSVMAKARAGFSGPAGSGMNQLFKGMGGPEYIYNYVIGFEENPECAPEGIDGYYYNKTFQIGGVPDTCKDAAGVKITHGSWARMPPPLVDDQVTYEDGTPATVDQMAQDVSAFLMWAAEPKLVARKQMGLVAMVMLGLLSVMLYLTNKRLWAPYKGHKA

T3: cytochrome cy, full length (membrane-anchored) (Rhodobacter capsulatus, UniProt Q05389 1-199)
T3 construct: cytochrome cy (cycY), Rhodobacter capsulatus: 30-residue TMH, 69-residue linker, 100-residue cyt c domain; Only its TMH is resolved in map SC-2A; also called cyt cy; intact cyt cy; source: purified
T3 sequence (looked up): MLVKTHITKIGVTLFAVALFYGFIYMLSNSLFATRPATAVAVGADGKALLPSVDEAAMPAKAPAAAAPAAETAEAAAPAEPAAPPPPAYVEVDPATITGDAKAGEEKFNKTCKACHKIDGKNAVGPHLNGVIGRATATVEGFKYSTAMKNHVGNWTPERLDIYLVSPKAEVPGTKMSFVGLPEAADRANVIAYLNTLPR

B1: cytochrome b, subunit of CIII2 (natural protein, Rhodobacter capsulatus)
chain: MSGIPHDHYEPKTGIEKWLHDRLPIVGLVYDTIMIPTPKNLNWWWIWGIVLAFTLVLQIVTGIVLAMHYTPHVDLAFASVEHIMRDVNGGWAMRYIHANGASLFFLAVYIHIFRGLYYGSYKAPREITWIVGMVIYLLMMGTAFMGYVLPWGQMSFWGATVITGLFGAIPGIGPSIQAWLLGGPAVDNATLNRFFSLHYLLPFVIAALVAIHIWAFHTTGNNNPTGVEVRRTSKADAEKDTLPFWPYFVIKDLFALALVLLGFFAVVAYMPNYLGHPDNYVQANPLSTPAHIVPEWYFLPFYAILRAFAADVWVVILVDGLTFGIVDAKFFGVIAMFGAIAVMALAPWLDTSKVRSGAYRPKFRMWFWFLVLDFVVLTWVGAMPTEYPYDWISLIASTYWFAYFLVILPLLGATEKPEPIPASIEEDFNSHYGNPAE
notes: cytochrome b (petB), Rhodobacter capsulatus; also called cyt b; PetB
B2: cytochrome c2 (natural protein, Rhodobacter capsulatus, UniProt P00094 22-137, looked up)
chain: GDAAKGEKEFNKCKTCHSIIAPDGTEIVKGAKTGPNLYGVVGRTAGTYPEFKYKDSIVALGASGFAWTEEDIATYVKDPGAFLKEKLDDKKAKTGMAFKLAKGGEDVAAYLASVVK
notes: soluble cytochrome c2, Rhodobacter capsulatus; also called cyt c2; source: purified R. capsulatus cyt c2
B3: cyt c1-CcoP fusion subunit of the bipartite SC (His8) (other, Rhodobacter capsulatus, UniProt D5ANZ4 22-279, looked up)
chain: NSNVPDHAFSFEGIFGKYDQAQLRRGFQVYNEVCSACHGMKFVPIRTLADDGGPQLDPTFVREYAAGLDTIIDKDSGEERDRKETDMFPTRVGDGMGPDLSVMAKARAGFSGPAGSGMNQLFKGMGGPEYIYNYVIGFEENPECAPEGIDGYYYNKTFQIGGVPDTCKDAAGVKITHGSWARMPPPLVDDQVTYEDGTPATVDQMAQDVSAFLMWAAEPKLVARKQMGLVAMVMLGLLSVMLYLTNKRLWAPYKGHKASKKPTTKKEVQTTGHSWDGIEELNTPLPRWWLWTFYATIVWGVAYSIAMPAWPIFASGATPGILGSSTRADVEKDIAKFAEMNKAVEDKLVATDLTAIAADPELVTYTRNAGAAVFRTWCAQCHGAGAGGNTGFPSLLDGDWLHGGSIETIYTNIKHGIRDPLDPDTLPVANMPAHLTDELLEPAQIDDVVQYVLKISGQPADEARATAGQQVFADNCVSCHGEDAKGMVEMGAPNLTDGIWLYGGDANTITTTIQLGRGGVMPSWSWAADGAKPRLSEAQIRAVASYVHSLGGGQ
notes: cytochrome c1 (petC), Rhodobacter capsulatus; stop codon eliminated, no linker to CcoP; CcoP subunit of the cbb3-type CIV, Rhodobacter capsulatus; start codon eliminated; About 65 kDa; Stood within the bipartite SC; also called petC::ccoP-His8; source: R. capsulatus pYO76/YO12, subunit of the purified bipartite SC; not shown: His8, C-terminal, kept
B4: Rieske FeS protein, subunit of CIII2 (natural protein, Rhodobacter capsulatus)
chain: MSHAEDNAGTRRDFLYHATAATGVVVTGAAVWPLINQMNASADVKAMASIFVDVSAVEVGTQLTVKWRGKPVFIRRRDEKDIELARSVPLGALRDTSAENANKPGAEATDENRTLPAFDGTNTGEWLVMLGVCTHLGCVPMGDKSGDFGGWFCPCHGSHYDSAGRIRKGPAPRNLDIPVAAFVDETTIKLG
notes: Rieske FeS protein (petA), Rhodobacter capsulatus; TMH residues 11-49, external domain (ED) residues 50-191 in the model; also called PetA; FeS-ED (its external domain); source: R. capsulatus pYO76/YO12, subunit of the purified bipartite SC and of the native CIII2 particles in that sample

Data set [1] concerns the molecule itself. Put plainly: cryo-EM structure; purified bipartite SC mixed with 5-fold molar excess of purified cyt cy; map SC-2A, 5.2 A; models fitted as rigid bodies.
Data set [2] addresses T1, CcoP, subunit of cbb3-type CIV. The experiment in a line: cross-linking; XL-MS: 300 ug purified cbb3-type CIV with 2-fold molar excess of cyt c2, 20 mM DMTMM, 1 h, room temperature, low salt (20 mM Na-phosphate pH 7.4, 1 mM NaCl, 0.01% DDM). To be noted: both partners purified.
The target in data set [3] is T2, cytochrome c1, subunit of bc1-type CIII2. The experiment in a line: cross-linking; XL-MS: 300 ug purified bc1-type CIII2 with 2-fold molar excess of cyt c2, 20 mM DMTMM, 1 h, room temperature, low salt (20 mM Na-phosphate pH 7.4, 1 mM NaCl, 0.01% DDM). Conditions: both partners purified.
For data set [4], the target named is T3, cytochrome cy, full length …. The experiment in a line: cross-linking; XL-MS: cyt cy with CIII2CIV, DMTMM. Conditions: both partners purified.
The target of data set [5] is B1. The experiment in a line: cryo-EM structure; purified bipartite SC mixed with 5-fold molar excess of purified cyt cy; map SC-2A, 5.2 A; models fitted as rigid bodies. Conditions: both partners purified.
Data set [6] deals with B1. The experiment in a line: cryo-EM structure; native CIII2 particles in the bipartite SC + cy samples; maps CIII2 (3.3 A), CIII2 c-c (3.8 A), b-c (4.2 A), b-b (3.5 A). To be noted: both partners purified.
Data set [7] concerns the target T2, cytochrome c1, subunit of bc1-type CIII2. The description is as above. To be noted: both partners purified.

With B1, the binding result in data set [1] is “binds”.
For B2, the binding result in data set [2] and in data set [3] was “binds” each time.
As for B3, the binding result in data set [4] and in data set [5] was “binds” in each case.
On to B4, for which the binding result in data set [4], in data set [6] and in data set [7] was “binds” in each case.
